Drawing on the NTF2 design screens of Basanta et al. (2020), this text covers protease stability score for 47 sequences.

The nature of this data set: protease stability score; higher = more stable; yeast display proteolysis, trypsin and chymotrypsin.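 Further: relative to predicted unfolded state with 0 unfolded-like and 1 meaning tenfold more protease.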
“DESQEIAIEASKRLYNHLLTGDEDNLKRLLDPHVRIEIDGRDIHGMEEVTRLKREWRFDSIEIRVDSVRDVNGRLDVKGHMRYHVRIGDKSHDREVKMHLTAEKIDGRWHNKSIHFE” gave a protease stability score of 1.26.

On to “DESQHVAEKVYKHLLKYWVTGDEDSVSRLVDPHARLHFEGRDLHGRHLISQFRMEWRLDHVHVDDMQVQGDKMEVRGKLDTTIDGRRTNLNEHLRLEKIDGRWYIREIRIE”, for which the protease stability score was 1.25.

The sequence “DESQRDAHHASELVELVEKTGDWKMFEKLLDPHVRLQVGDKEFHGRHEAMRWIRETLERLGIDHREVRIEHIEFIGDKMIIHGEIILRFNGVTITHEEEFIVKKINGKWRMHEIRVR” had a protease stability score of 1.29.

For the sequence “DESREIAHKFLEIWIDAFKTGDEDLNSELLDPNTRRDVGDFRIHGMELIVKIMSKELEKYKGITFRVKIRHSTWQGDKIHLIVDILIIIGDKEERIETHFILEKIDGRWITTHMQIR”, the protease stability score came out at 1.34.

Consider “DESRESLEEALKIYIHDIKTGDEKSLTELADPNARLNFNGRWHHGREMVTKWMSEMRLHDFKLHELDVQGDKVHIRGEIFFEIDGRVIRSEIHIVMIKINGRWLLHSMHVE”, for which the protease stability score turned out to be 1.17.

“DESRKAMRIALEIIEHMWRTGDETLRHELADPNTRVRIGDKELHGREELIRLWKELGFKHIEEIDLESIFVQGDKIHIDTRVHGEINGRHEVMRVVLIIHKIDGKWLIHSESHR” came in with a protease stability score of 1.49.

In turn, “DESRREVRHFIDLWIELVETGDEDTIRHLADPHVKIVIGEKEDWGMEVFFRDFRRLGVDHMEIIVHRVDVIGNKAHVDFELRVHVDGQEFRFRLRLIVHKINGRWILRTIEIH” yielded a protease stability score of 1.68.

With “DESTEHLHRFFDLLIEWIRTGDEESLNKNADPNTRVEAENHEEHGREKFSKHLSEIMTHMRSHFVLRHVSFVGDKAIFDVEVIIIVNGREIKVRTFIIVVKINGRWLLKSVHIE”, the protease stability score came to 1.6.

As to “DESTENLREFIRVLLHLWETGNEDEFLRMADPNALVYDEHEYDHGWKAWKKLLEQYDVVTSIIPRHIRLIGDKVDIHTNLYMLINGRTVEVHTELLVKKIDGQWRIKFFLIR”, the protease stability score was 1.63.

The sequence “DESTEVLERIMKDFLDELRTGDWEKFMELADPNVRLHFNGVTNHGREEVTRYFREHLARFDHYEIENHRVTLVGDKLHLDVILRVHQGDKFREYKVEIRVVVYDGKIKEVHIIIR” registered a protease stability score of 2.44.

In turn, “DESTHNRKIAVEILEHDNKTGDEKSIFRLFDPHVKIEVDGRDYHGREFFEEFIRKLGWTNIELTIKDVRSIGEFAEMRMEVRYGDWHFHTKVDVKKYNGQWLNREVRIA” came in with a protease stability score of 1.44.

As for “DESTKAAEDIFEIIREMLETGDEETTRRLFDPDAKIIIGDKEIHGRENIELFMRLWLKQFDHVHDMTIRRMEIQGDKVIMDTEIHGTINGQRRTIRTRWIVVKINGKWSIHEVYFT”, the protease stability score was determined as 2.02.

Sequence “DESTKEARKFKHEFDNDWKTGDEDSLLRLADPHVRTDVNGVENHGREDFVKLLMDIFREMRTEMRTRHVTVFNGRIEVHSTLHLHQGDKVIDLEVLIINRKVNGRWILESMEIK” showed a protease stability score of 0.603.

As for “DESTKNAQEVIKMIKEIVETGDWRRHHQLVDPNARLHVHINGKDEESHGREEFTRVLMELWKEFGAKHVRFEDFELQGEKIHFHVKINVDGKDVKLLIVALKINGRWLMESVYVEFH”, the protease stability score was found to be 1.19.

For the sequence “DESTRDFRQFFKLLVEHFKTGDWRRLADLFDPNVRVEINGRELHGRENIALWLRDRFKHLGVDHVHMRIRDLEVQGDKIRIHVELEIRVGDKVFYHETVLVIEKFDGRWIVHEEEYK”, the protease stability score stood at 1.49.

For “DESTRDVKEMVEWFLRTLHTGDEHLLEHLLDPDVRVLIDGREHHGRETMREIWKEHIDKIKGAVIEIKRIEVRIQGNKAHLHVDTVLHYNGRNLDTHIEIIITKINGQWRVREVEIRVR”, the protease stability score was 2.21.

In turn, “DESTSQARKAIEQLIHVEETGDEEMFSTLVDPHVRMDYNGVELHGMEKARNHWNELWKRFKGIKIELKRLEIQGNKVRVQMTYIVGDKNKYVEIHITKIDGQWVITEIHVD” displayed a protease stability score of 1.12.

In the case of “DETASRAAERYMKALQTGDPDEVVKQIDPNVHVRVGDKEVQGKEQFRKKQERDKKQARYHIKHVTFNVEGDKVRVDVIFRKHHNGQPRHDRMEQRMSVRGDKITHQENHKTG”, the protease stability score was 0.172.

On to “DETDEHAHKMFEIIIHYLLTGDWKELIKLADPHVKLEFDINGKTIDLVGRELFTEFFLRFKNVRSEIDDVRHIGDKNHARVRVNWDGRDTEVQIDIVIIDGVVHRVRLIFK”, for which the protease stability score stood at 2.59.

“DETDEWAHKLMELILEYWLTGDWDLFNELADPNVKLIINGRESVGREEVREMLERTLKEIRLRRIEIDHVRIYDGRAQTHSRTDGDVNGKVTETHMHLHVLLINGRIRHVEIRLH” yielded a protease stability score of 2.02.

Consider “DETDEYARNMMEIFVHLLATGNEEKMLEYMDPNTRHNFNGVVLHGRDVLREWWHRWLKEIRITRTRIDHVHTQGEYVHANTTVEGTIDGRKFELETRVHLHVVNGRIKESSIKLN”, for which the protease stability score came to 1.51.

On to “DETDKLAFELMEELLENFHTGNEERFHQLFDPDVRIIVNGRTLHGRRHWHKILEDIIREWRIKHIHMERLISIGDKARLDMRWNVRVNGREVHTESHVNLTVVDGRITLLEIQHH”, for which the protease stability score was 1.52.

“DETEDEMHKVLKLWIEAYRTGDEELLEELFDPHVRLDINGKDFHGREAFTRQVRHEMKHLRYEDFHIDTVEVQGEKAFVHGRIVGKFDGRRRHMHSHLIILKINGRWHVESLHFK” returned a protease stability score of 1.26.

The sequence “DETEDTIHEAVKEFVTALMTGDEELLQKLMDPRTRLDYNGREIHGREEVIRLLLEMRIHHVEIKRIEIQGNKVHVDVKVDGEFNGQRRETKTIINATKINGRWVVQELVIR” returned a protease stability score of 2.26.

In turn, “DETEDTSRHLLELFAHALRTGDEESSDRLLDPHVRIDINGKELIGRERFRELWEEMRIEWVKIRDVSIINGQVHVNGEMLMVYDGRTYTIETRIIILKVDGRWVIEHMKIG” came in with a protease stability score of 1.43.

For the sequence “DETEEAVLSVARLWLHLFLTGDEERTQKMMDPNARVEIDGKEVVGREKVTDMIRHKIEQIRIQDHKEKDIKVIGDKVHLHVQFHGEVDGKEINTLILINVMVVDGRIKHVEIRVS”, the protease stability score was determined as 0.77.

In turn, “DETEEDARHFVELWRRDMITGDEDRIKEMADPNVRVIIGDKNLHGREDMTEVLRHLRIHRVNVHSIHVQGDWVHITTEVDGRIGDKRHELEVHILTRKVNGRWQLQTLEIG” gave a protease stability score of 1.12.

In turn, “DETEEDVREAIRKMLHSTRTGDEEDNKKLMDPNVQIDIDGVKYHGWETWVEHMRRVDHLRMKIHSIEVQGNKLIVDGELDQRFNGVQLRFRSELILVKIDGRWLVHSIHFK” yielded a protease stability score of 1.17.

“DETEEEARHVFELIIEYHLTGDWDKWLRMFDPHVKLVVNGRDNHGREHAVHRLKEFLRQWRIHDVEVKSVDLQGDKVRVDGRLDGIVNGVREKTEVTLSLIVVDGKIKSHEVRIH” yielded a protease stability score of 1.51.

With “DETEEEVREAIEKFIQDLHTGNWHAYNEMLDPNVRVIVGDKHLHGRERVLEWEEEFMRKVKGATYRIDHMDVIDGRINLHFRITIGDKSREFNVHSLKINGQWHTKEVRVNIL”, the protease stability score stood at 1.06.

Regarding “DETEEEVRKFVEESVKQNNTGNEDFAKRLADPNARFEQGDKELHGREEMRRVLVELWFEDYRIERLHVQGNKVEVEVVVHGVVNGKHQEVRVIIILLKINGRWVFRDVTVK”, the protease stability score stood at 0.648.

Sequence “DETEEIAKKVVEYWIREFMTGNEESLLELIDPNAKSDILQGDKELHIVGRESARLFIKRFKGQRMEITHLEVHVQGDKVHVRLHVDIIYNGRKFHVISHVDWEKIDGRWIIHQEKFVFE” came in with a protease stability score of 1.71.

In the case of “DETEELFEEIVKIFIEAMETGDWRLLKRMVDPHVRSIQGDFHLHGRESMLELWLHIRIDRITLTDARVRIQGEKVHVDLRVKTNGIINGRRKDTQTHVHLHLDKVNGVWSITITNIIFE”, the protease stability score was determined as 0.553.

For the sequence “DETEEMAEEVLRRFLEINRTGDWKDLHRLFDPNVRIVVNGQELHGMELYLKHEIKTRRKLGAKVEEVRLKHLDSQGEKIISEVEIIFDINGQEIRLDVRVIMNKIDGKWTIRELRIH”, the protease stability score is 1.08.

On to “DETEEMARLFNEEVRHSWKTGNEEHIKRLIDPHAKVHIGDKELHGRERATETIRKLGVKHLEIDDIHIIDGRVHVDGTLDVDGQSFRVEIILSKVNGRWLNEEIRIH”, for which the protease stability score is -0.344.

Sequence “DETEEMIKRHMDKLFRAVRTGDWDQFVKLADPNTRIEVGDFHYHGWERFSEFMSELRIHRFRMHDSEVVNGRVHLHTEEDGEVNGKRRESRVHRVLLKIDGRWHLHSVHIE” gave a protease stability score of 0.909.

“DETEEMVREMAHLFLHLWITGDEEIIKHLLDPSVRLHINGVDNHGRENALEVVHRILKELRLRHLHIHEVHIINGVIHNNIRLDIEQGDKRRILEIEVILVVWNGKIKSIEVRLK” showed a protease stability score of 1.51.

Sequence “DETEERTRKAIKLSLEVLRTGDERVISEMADPHVRLDFNGRQLHGREEFVHHIVRFFEEAGINYLHIEDWDVFNGVIIEHVRWNFNGREVEVEIIANKVNGKWLIKEFRIK” showed a protease stability score of 1.07.

Consider “DETEEVMERVIQMLAHATHTGDWKDIRRLMDPNVKININGREIIGREELIRYLRELRETYHHFELKHVEVQGDKIIVHGRTLIRIEIGDKEIHLDSDVRYILWKVDGRWIMESIHIV”, for which the protease stability score turned out to be 2.18.

The sequence “DETEHHAREMAELLLHVILTGDEHLMERLIDPDVKLHSFFNGRQFHRIGMEELKRYLEEWRREIRLKDVRIRQFEVQGDKFRLDMEVEGNINGRDNVTKTELIIITVNGRLHEIDIRIE” registered a protease stability score of 2.1.

The sequence “DETEKHILKLAEMLVRDWITGNEENIMELLDPHAKIDIHIDGRYLEFHGRELITRELIRHYEEIRIHYHFRESESVGEKASINMDVEVHIGDKIVRSHTEVILDIVNGRVRNIHIRWK” registered a protease stability score of 2.23.

In turn, “DETEKHVKHLTELWMHAWLTGDEDLLEHLLDPHTRVIIFYGDKNYHFHGRESIHIRFYELGAKHVRDFRIRDSKIQGNKLLLNGEENGLVNGRQTETEVRIELVWIDGRVHSIVVRIH” yielded a protease stability score of 1.3.

“DETEKIVRSVVHMFLHLMHTGDWEELMKLADPNTIVHFENHRKHGREDAIRHIIEFILRADHIEVHLDEIRIQGDKVYLNLRLILDINGRRIETRVHIILVKINGRWRIHSMDVE” had a protease stability score of 1.4.

As for “DETENSLRTMLHRLLDSIRTGDFRTVDDLADPHVKIDVGDKHIHGREIYRKIVLQADHVESRFHLHDIHNIGNWAHVDGRLINHEVVDGQKIDLDLRIEIIVTKIDGKWTIESVRFE”, the protease stability score came to 1.46.

Sequence “DETERDVREAVRIWNEDVETGNEESLLRLIDPHVRLVINGQTFHGMESMLEVLNEFLKHIRVEHIEVKRIEIQGDKAIIDTNMDIEIDGKRKQKKTTLIIRKFNGRWHLSLVEIR” registered a protease stability score of 1.86.

“DETERLAEKWYRHWLHLILTGDWELLEKQADPHYKFHVGDKVFIGRELASEWLRHLYEHIRIDDMKITHLDLQGDKINNDGRMRVTQGEKHKEVSVDLHMIVVNGKMHEIRIRTH” had a protease stability score of 1.45.

“DETERWAHLMLKLMQRYQETGDEDSLLELMDPEAKIDINGKEIHGREEWREHRYHHLRELGHTNIDVRVHLRRMHNVGDKANVRGELRININGKKLSVDVIIIILKIDGRWVIESLRLE” came in with a protease stability score of 0.736.
